Assay results: IntAct's records for PubMed 24076653

B1: BAR/IMD domain-containing adapter protein 2 (Homo sapiens), Q9UQB8-4 (parent)
chain: MSLSRSEEMHRLTENVYKTIMEQFNPSLRNFIAMGKNYEKALAGVTYAAKGYFDALVKMGELASESQGSKELGDVLFQMAEVHRQIQNQLEEMLKSFHNELLTQLEQKVELDSRYLSAALKKYQTEQRSKGDALDKCQAELKKLRKKSQGSKNPQKYSDKELQYIDAISNKQGELENYVSDGYKTALTEERRRFCFLVEKQCAVAKNSAAYHSKGKELLAQKLPLWQQACADPSKIPERAVQLMQQVASNGATLPSALSASKSNLVISDPIPGAKPLPVPPELAPFVGRMSAQESTPIMNGVTGPDGEDYSPWADRKAAQPKSLSPPQSQSKLSDSYSNTLPVRKSVTPKNSYATTENKTLPRSSSMAAGLERNGRMRVKAIFSHAAGDNSTLLSFKEGDLITLLVPEARDGWHYGESEKTKMRGWFPFSYTRVLDSDGSDRLHMSLQQGKSSSTGNLLDKDDLAIPPPDYGAASRAFPAQTASGFKQRPYSVAVPAFSQGLDDYGARSMSSGSGTLVSTV

Variants of: B1
Settings: with vasp_human VASP

Variant | effect of a mutation on the interaction
MSLSRSEEMHRLTENVYKTIMEQFNPSLRNFIAMGKNYEKALAGVTYAAKGYFDALVKMGELASESQGSKELGDVLFQMAEVHRQIQNQLEEMLKSFHNELLTQLEQKVELDSRYLSAALKKYQTEQRSKGDALDKCQAELKKLRKKSQGSKNPQKYSDKELQYIDAISNKQGELENYVSDGYKTALTEERRRFCFLVEKQCAVAKNSAAYHSKGKELLAQKLPLWQQACADPSKIPERAVQLMQQVASNGATLPSALSASKSNLVISDPIPGAKPLPVPPELAPFVGRMSAQESTPIMNGVTGPDGEDYSPWADRKAAQPKSLSPPQSQSKLSDSYSNTLPVRKSVTPKNSYATTENKTLPRSSSMAAGLERNGRMRVKAIFSHAAGDNSTLLSFKEGDLITLLVPEARDGGHYGESEKTKMRGWFPFSYTRVLDSDGSDRLHMSLQQGKSSSTGNLLDKDDLAIPPPDYGAASRAFPAQTASGFKQRPYSVAVPAFSQGLDDYGARSMSSGSGTLVSTV [W413G] | disrupting interaction
